Among the data in paper PMC5951583 (PLoS Pathogens, 2018) are Kd, koff and kon values, retold here.

The target in this test is HC-fragment of BoNT/DC fused to a C-terminal Streptag (HCDCS; AA 863–1285), wild-type (C. botulinum strain OFD05, UniProt A5JGM8 863-1285). Kind of test: SPR. To be noted: both partners purified.

“And” between values parts separate entries of the source, which are not always exact repeats. Equal values may be shown once.

B1: GST-rSyt-II 1–61 (domain or fragment)
chain: MRNIFKRNQEPIVAPATTTATMPLAPAAPADNSTESTGTGESQEDMFAKLKDKFFNEINKI
notes: also called GST-Syt-II 1–61; isolated Syt-II
As for B1, binding was characterised by a dissociation constant (Kd) of 1.8 µM; the koff (in general, the first-order rate constant of dissociation) was found to be 0.24 s⁻¹; the kon (in general, the rate constant with which the complex forms) turned out to be 230000 M⁻¹ s⁻¹.

B2: GST-rSyt-II 1–90 (domain or fragment)
chain: MRNIFKRNQEPIVAPATTTATMPLAPAAPADNSTESTGTGESQEDMFAKLKDKFFNEINKIPLPPWALIAMAVVAGLLLLTCCFCICKKC
notes: also called GST-Syt-II 1–90; Syt-II with its TMD
B2: the off-rate (koff) was 0.49 s⁻¹ and 0.63 s⁻¹.
